Data taken from article PMC8336894 (Genes & Development, 2021).

Target: T1, CRY1 (human (endogenous in HEK293), UniProt Q16526 1-586)
T1 sequence (looked up): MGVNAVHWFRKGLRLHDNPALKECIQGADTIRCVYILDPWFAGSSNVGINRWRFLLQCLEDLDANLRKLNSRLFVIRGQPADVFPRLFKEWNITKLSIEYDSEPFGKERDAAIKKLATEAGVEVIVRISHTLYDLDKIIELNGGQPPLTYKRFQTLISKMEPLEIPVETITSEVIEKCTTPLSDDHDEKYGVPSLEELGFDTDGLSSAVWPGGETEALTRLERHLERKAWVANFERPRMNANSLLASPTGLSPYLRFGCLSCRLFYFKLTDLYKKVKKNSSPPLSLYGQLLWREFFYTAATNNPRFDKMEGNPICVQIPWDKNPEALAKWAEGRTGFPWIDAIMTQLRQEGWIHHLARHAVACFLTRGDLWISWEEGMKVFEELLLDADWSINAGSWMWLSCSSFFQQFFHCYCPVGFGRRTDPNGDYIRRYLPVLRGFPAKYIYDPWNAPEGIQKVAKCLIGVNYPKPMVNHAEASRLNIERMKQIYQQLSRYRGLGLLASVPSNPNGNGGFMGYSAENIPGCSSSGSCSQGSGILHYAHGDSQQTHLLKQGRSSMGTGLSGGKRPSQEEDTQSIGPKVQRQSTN
Experiment: co-IP

B1: BMAL1-luciferase fusion protein (natural protein)
chain: not shown
B1 was tested. Which “fold luciferase activity in the precipitate over the IgG control” value did it give?
Its value is ~3 fold.
